The values below are quoted from earlier work in PMC2446434.

This series concerns the target CD200 (Mus musculus) (UniProt O54901). Put plainly: SPR.
UniProt O54901, sequence (O54901 31-232): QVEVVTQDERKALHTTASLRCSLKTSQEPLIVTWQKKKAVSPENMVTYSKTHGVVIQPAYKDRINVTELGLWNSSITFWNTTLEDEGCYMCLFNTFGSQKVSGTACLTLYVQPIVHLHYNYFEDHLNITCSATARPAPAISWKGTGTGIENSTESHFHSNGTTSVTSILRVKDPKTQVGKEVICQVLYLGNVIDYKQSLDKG

For CD200R (from UniProt Q9ES57), the Kd is 4 µM.

Broadly, the Kd is the constant that tells how readily two partners part at equilibrium.
